This is an account of results in paper PMC3507807, “DNA binding specificity of ATAF2, a NAC domain transcription factor targeted for degradation by Tobacco mosaic virus” (BMC Plant Biology, 2012).

For orientation: stoichiometry N means the number of molecules, sites or subunits per partner or assembly.

Data set [1] addresses T1, ATAF2 (Arabidopsis thaliana) (UniProt Q9C598).
T1 sequence: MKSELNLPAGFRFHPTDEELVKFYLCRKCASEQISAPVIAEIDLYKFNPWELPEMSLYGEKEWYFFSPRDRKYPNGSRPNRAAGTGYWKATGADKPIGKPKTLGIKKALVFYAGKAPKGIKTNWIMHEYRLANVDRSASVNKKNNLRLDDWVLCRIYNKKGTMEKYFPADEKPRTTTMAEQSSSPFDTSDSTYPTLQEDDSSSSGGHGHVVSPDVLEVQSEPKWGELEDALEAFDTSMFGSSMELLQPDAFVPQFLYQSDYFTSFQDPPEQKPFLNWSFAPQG
Description: EMSA. To be noted: EMSA: 20 mM Tris-HCl pH 8.0, 60 mM KCl, 5 mM MgCl2, 100 ug/ml BSA, 5% glycerol, 1 mM DTT, 0.5 ug poly(dI-dC) in 10 ul, 100-300 fmol probe, 25 C 30 min.

For a further data set, the target named is T2, ATAF2 (Arabidopsis thaliana, UniProt Q9C598 1-283).
T2 sequence: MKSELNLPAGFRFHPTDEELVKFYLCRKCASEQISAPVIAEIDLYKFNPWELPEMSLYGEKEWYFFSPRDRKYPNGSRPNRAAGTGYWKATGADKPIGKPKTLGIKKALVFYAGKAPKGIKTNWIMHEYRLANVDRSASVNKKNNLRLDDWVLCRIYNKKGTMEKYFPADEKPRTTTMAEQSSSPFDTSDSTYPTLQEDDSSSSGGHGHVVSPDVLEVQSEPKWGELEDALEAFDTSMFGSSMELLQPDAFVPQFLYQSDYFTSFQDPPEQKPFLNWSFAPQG
As to the kind of experiment: EMSA; binding not dramatically reduced; EMSA: 20 mM Tris-HCl pH 8.0, 60 mM KCl, 5 mM MgCl2, 100 ug/ml BSA, 5% glycerol, 1 mM DTT, 0.5 ug poly(dI-dC) in 10 ul, 100-300 fmol probe, 25 C 30 min; 5% native PAGE, 0.5X TBE. Footprint: same binding buffer, 10 fmol probe. The conditions noted are these: protein: recombinant; tags: N-terminal His6 (pTrcHisA); chain copies: 2; label: 5'-32P. On the technique in general: In EMSA bound probe runs differently from free probe, usually more slowly.

Data set [2] deals with the molecule itself. Description: SEC; Superdex-200 HR 10/30; ~160 ug purified protein, incubated 20 min at room temperature and run in 25 mM Tris-HCl pH 7.5, 10% glycerol, 500 mM NaCl, 0.5 mM EDTA; fractions checked by SDS-PAGE; mass markers 670, 158, 44 and 17 kDa. On the technique in general: Size exclusion chromatography separates by hydrodynamic size, large species first.

Consider “TCAGAAGAGCAAGAAAATTAAAACACATAT (double strand) [M3 (nt 13-14 TC to GA)]”, for which the binding signal in data set [1] (stated as 47% reduction) is 53 % of WT. With “TCAGAAGAGCAAGTCCCCTAAAACACATAT (double strand) [C2 (nt 13-18 TCAAAT to GTCCCC)]”, the binding signal in data set [1] (reduction >85%) was < 15 % of WT.

Take “TCAGAAGAGCAATCAAATTAAAACACATAT (double strand) [30-bp ATAF2 binding sequence (wild type)]”: the binding signal in data set [1] was 100 % of WT. For the molecule “TCAGAAGAGCAATCAAATTAAAGAACATAT (double strand) [M5 (nt 23-24 AC to GA)]”, in data set [1] (stated as 96% reduction), the binding signal is 4 % of WT. Consider “TCAGAAGAGCAATCAAATTAATTTTTTTAT (double strand) [C3 (nt 22-27 AACACA to TTTTTT)]”, for which the binding signal in data set [1] (reduction >85%) is < 15 % of WT.

Take “TCCAAAGAGCAATCAAATTAAAACACATAT (double strand) [M1 (nt 3-4 AG to CA)]”: the binding signal in data set [1] (stated as 91% reduction) was 9 % of WT.

In the case of “TCTTTTTAGCAATCAAATTAAAACACATAT (double strand) [C1 (nt 3-7 AGAAG to TTTTT)]”, the binding signal in data set [1] (reduction >85%) is < 15 % of WT. Regarding “TCAGAAGAGCAATCAAACCAAAACACATAT (double strand) [M4 (nt 18-19 TT to CC)]”, in data set [1] (stated as 87% reduction), the binding signal is 13 % of WT.

B1: M2 (dsDNA)
DNA 1: TCAGAAGTACAATCAAATTAAAACACATAT
DNA 2: ATATGTGTTTTAATTTGATTGTACTTCTGA
As to B1, the binding result with ATAF2 was “binds”.

B2: M6 (dsDNA)
DNA 1: TCAGAAGAGCAATCAAATTAAAACACACCT
DNA 2: AGGTGTGTTTTAATTTGATTGCTCTTCTGA
In the case of B2, in the data set with ATAF2, the binding result is on record as “binds”.

B3: ATAF2 NAC domain (ATAF2-165, 1 aa to 165 aa) (domain or fragment, Arabidopsis, UniProt Q9C598 1-165, looked up)
chain: MKSELNLPAGFRFHPTDEELVKFYLCRKCASEQISAPVIAEIDLYKFNPWELPEMSLYGEKEWYFFSPRDRKYPNGSRPNRAAGTGYWKATGADKPIGKPKTLGIKKALVFYAGKAPKGIKTNWIMHEYRLANVDRSASVNKKNNLRLDDWVLCRIYNKKGTMEK
notes: ATAF2 (AT5g08790), Arabidopsis thaliana NAC domain transcription factor, truncated version containing only the NAC domain, residues 1-165; source: E. coli BL21 (+), pTrcHisA, purified (Ni-NTA)
For the molecule B3, in data set [2], the “stoichiometry N” value worked out at 2.
